Results on four molecules are retold here after paper PMC4342579, “A new cytoplasmic interaction between junctin and ryanodine receptor Ca^2+ release channels” (Journal of Cell Science, 2015).

Ends that are not written are not given here. * marks the point of attachment. Biotin = O=C1N[C@H]2[C@H](CS[C@H]2CCCCC(=O)*)N1

For assay [1], the target named is RyR1 purified from rabbit skeletal muscle (rabbit) (UniProt P11716).
Assay [2] has the same target. The source holds these as a separate data set.
Assay [3] concerns the target T1, RyR1 purified from rabbit skeletal muscle (rabbit, UniProt P11716 1-5037).
T1 construct: ryanodine receptor 1 (RyR1), rabbit skeletal muscle, purified from SR vesicles; Purification as in Wei et al., 2009b; also called skeletal RyR1; purified RyR1; source: purified from rabbit skeletal SR vesicles (sucrose gradient)
Briefly: pull-down; affinity chromatography: biotinylated canine KEKE peptide on streptavidin–agarose, purified RyR1 or RyR2. The note with it: both partners purified.

The target in assay [4] is T2, full length recombinant mouse RyR2 (mouse, UniProt E9Q401 1-4966).
T2 construct: ryanodine receptor 2 (RyR2), mouse, recombinant; Cell line of Koop et al., 2008; also called recombinant RyR2
Briefly: pull-down; NeutrAvidin–agarose affinity chromatography: biotinylated Njun or scrambled Njun on the agarose, recombinant RyR or RyR1 fragments (isolated from HEK293) incubated overnight at 4°C in PBS plus 0.1% SDS; RyR detected with 34C or anti-GFP antibody. The note with it: both partners purified.

For assay [5], the target named is T1, RyR1 purified from rabbit skeletal …. Briefly: cell-based or functional assay.

Chain of RyR1 purified from rabbit skeletal muscle (rabbit) (P11716 whole entry): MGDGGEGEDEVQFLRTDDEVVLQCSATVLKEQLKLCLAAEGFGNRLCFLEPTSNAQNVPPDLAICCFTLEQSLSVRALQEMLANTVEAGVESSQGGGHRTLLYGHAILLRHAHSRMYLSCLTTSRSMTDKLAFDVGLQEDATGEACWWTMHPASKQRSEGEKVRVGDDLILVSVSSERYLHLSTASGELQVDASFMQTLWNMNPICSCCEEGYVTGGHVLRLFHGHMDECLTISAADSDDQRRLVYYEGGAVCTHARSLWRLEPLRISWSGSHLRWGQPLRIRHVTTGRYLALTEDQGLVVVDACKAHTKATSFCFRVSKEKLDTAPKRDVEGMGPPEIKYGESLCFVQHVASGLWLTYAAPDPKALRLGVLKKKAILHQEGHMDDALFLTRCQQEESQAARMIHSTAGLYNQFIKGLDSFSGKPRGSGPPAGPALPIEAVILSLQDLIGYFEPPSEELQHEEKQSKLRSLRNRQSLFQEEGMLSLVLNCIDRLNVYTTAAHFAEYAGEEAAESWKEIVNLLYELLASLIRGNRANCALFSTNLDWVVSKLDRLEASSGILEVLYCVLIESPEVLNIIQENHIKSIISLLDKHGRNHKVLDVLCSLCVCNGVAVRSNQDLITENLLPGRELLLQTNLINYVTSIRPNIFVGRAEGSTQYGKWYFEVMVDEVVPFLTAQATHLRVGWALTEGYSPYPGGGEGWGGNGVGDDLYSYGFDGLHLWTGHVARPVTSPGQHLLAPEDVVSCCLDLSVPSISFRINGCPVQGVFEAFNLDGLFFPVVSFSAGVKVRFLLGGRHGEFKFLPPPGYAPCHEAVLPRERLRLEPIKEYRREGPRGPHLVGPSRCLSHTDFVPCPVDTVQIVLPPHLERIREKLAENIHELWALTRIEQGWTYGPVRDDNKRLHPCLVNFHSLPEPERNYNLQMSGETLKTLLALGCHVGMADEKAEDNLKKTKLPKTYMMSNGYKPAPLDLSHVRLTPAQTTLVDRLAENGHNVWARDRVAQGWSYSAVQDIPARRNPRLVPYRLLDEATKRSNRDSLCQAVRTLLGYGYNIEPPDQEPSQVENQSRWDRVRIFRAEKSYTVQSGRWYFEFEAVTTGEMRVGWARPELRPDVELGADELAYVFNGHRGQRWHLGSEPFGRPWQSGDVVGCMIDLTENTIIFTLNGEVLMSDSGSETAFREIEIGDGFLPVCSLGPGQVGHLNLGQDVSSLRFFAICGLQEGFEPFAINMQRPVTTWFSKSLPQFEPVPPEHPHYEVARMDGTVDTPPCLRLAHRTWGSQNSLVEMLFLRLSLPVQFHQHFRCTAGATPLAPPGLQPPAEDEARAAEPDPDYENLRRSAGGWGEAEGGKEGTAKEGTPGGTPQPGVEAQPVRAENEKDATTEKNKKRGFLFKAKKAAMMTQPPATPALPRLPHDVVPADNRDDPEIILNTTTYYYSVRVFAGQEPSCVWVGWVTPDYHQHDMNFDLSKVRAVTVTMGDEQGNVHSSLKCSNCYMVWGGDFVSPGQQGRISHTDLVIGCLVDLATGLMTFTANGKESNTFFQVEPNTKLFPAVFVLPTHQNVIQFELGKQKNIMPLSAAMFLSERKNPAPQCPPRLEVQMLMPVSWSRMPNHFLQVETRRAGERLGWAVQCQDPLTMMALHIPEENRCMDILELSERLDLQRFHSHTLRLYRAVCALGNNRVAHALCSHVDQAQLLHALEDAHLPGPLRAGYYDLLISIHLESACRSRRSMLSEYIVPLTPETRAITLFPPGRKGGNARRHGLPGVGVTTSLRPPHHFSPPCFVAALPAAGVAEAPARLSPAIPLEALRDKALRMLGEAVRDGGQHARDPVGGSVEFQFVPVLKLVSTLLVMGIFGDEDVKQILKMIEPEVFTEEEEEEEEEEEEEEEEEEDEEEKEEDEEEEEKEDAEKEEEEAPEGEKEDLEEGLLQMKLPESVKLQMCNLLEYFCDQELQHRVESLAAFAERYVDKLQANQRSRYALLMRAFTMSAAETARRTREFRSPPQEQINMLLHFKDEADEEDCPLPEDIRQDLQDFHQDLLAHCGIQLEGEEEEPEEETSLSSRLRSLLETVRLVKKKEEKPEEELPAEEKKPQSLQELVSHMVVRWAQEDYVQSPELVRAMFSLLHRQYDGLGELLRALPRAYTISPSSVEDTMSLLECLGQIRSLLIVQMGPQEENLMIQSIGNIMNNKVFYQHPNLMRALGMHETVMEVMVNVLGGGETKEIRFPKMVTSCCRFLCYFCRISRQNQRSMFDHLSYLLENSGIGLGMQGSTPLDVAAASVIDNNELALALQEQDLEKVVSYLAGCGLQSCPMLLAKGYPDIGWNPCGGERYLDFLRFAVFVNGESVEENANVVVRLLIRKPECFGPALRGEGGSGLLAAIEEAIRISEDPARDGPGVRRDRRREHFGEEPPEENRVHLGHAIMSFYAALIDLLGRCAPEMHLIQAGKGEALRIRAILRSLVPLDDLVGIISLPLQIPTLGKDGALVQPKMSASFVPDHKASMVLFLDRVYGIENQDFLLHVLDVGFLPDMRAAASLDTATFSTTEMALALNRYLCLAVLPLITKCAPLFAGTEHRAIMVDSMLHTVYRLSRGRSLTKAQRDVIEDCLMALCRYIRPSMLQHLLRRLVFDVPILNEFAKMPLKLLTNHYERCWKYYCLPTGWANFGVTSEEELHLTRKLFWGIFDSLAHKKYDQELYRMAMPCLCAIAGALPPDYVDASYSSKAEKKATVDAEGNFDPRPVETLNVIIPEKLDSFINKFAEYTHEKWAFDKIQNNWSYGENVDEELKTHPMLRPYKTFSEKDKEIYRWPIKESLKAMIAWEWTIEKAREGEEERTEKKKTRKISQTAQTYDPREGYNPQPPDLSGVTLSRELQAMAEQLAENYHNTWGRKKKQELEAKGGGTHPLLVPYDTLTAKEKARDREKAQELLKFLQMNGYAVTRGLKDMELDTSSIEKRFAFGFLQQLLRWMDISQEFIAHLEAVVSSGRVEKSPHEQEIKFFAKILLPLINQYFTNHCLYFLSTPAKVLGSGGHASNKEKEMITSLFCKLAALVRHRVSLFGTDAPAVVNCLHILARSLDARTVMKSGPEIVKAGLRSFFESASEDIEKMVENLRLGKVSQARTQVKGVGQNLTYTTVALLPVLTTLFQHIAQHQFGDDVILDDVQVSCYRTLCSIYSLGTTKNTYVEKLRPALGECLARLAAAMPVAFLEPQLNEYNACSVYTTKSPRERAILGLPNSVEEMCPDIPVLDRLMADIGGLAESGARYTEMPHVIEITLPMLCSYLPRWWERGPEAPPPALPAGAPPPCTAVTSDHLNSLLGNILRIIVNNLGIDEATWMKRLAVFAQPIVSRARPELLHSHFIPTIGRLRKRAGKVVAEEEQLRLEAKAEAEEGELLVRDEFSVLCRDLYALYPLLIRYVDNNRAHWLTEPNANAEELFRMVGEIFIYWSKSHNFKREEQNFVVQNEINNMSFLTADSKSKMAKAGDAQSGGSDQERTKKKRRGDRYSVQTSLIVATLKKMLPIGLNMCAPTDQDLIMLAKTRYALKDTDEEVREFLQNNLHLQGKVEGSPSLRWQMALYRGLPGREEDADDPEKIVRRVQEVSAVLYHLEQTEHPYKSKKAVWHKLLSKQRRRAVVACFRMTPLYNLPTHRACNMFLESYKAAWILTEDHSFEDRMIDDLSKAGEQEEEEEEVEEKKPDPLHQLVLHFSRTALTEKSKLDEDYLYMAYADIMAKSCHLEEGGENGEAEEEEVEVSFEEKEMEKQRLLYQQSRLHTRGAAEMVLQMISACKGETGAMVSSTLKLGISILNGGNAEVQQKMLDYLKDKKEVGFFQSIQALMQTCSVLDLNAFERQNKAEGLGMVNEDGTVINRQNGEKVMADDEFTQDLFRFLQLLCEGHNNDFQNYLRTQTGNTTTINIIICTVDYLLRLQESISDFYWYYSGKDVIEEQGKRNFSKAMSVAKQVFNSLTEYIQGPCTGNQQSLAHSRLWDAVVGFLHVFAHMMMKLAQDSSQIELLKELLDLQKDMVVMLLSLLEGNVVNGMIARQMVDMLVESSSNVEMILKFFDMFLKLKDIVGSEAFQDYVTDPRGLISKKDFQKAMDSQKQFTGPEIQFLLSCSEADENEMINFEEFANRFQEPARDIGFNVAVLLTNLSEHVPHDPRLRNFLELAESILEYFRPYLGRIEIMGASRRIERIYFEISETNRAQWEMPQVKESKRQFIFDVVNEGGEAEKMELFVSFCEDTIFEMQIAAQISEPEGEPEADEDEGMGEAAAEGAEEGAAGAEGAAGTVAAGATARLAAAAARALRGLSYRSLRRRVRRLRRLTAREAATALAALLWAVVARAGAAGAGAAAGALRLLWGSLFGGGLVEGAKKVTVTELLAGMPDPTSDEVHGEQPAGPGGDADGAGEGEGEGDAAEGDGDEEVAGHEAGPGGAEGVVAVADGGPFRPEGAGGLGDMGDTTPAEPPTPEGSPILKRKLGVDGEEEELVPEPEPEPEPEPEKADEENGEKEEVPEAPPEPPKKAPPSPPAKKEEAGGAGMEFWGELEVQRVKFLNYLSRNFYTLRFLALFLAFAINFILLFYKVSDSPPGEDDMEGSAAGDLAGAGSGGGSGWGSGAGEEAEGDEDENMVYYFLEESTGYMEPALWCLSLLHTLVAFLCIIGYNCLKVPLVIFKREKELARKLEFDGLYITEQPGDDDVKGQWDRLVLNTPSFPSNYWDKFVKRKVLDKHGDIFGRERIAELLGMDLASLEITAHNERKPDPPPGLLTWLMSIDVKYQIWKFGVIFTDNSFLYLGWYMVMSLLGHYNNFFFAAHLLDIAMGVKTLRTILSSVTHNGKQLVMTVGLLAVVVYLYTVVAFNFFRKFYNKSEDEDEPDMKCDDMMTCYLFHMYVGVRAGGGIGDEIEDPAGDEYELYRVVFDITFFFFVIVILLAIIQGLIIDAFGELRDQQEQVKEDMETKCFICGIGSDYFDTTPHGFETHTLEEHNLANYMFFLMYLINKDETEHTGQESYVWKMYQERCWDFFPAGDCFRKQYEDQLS
T1 sequence (P11716 whole entry): as above

In the case of “C-terminal domain of canine junctin (amino acids 46–210), His6-tagged (domain or fragment)”, the open probability (Po) of purified RyR1 channels in lipid bilayers, 213 nM Cjun in the luminal solution, relative to control in assay [1] is 0.68 of control. For “full-length junctin isolated from rabbit skeletal muscle (natural protein)”, the open probability of purified RyR1 channels in lipid bilayers, 213 nM FLjun in the luminal solution, increase over control in assay [2] came to 1.9 fold.

B1: Cjun KEKE motif peptide (canine), residues 84–105, biotinylated (peptide)
peptide: Biotin-KRKTKAKVKELTKEELKKEKEK
notes: junctin, canine, KEKE motif, residues 84-105; also called canine KEKE peptide; KEKE peptide; source: synthetic peptide
As to B1, the binding result in assay [3] is reported as “binds”.

B2: Njun peptide, N-terminal cytoplasmic domain of junctin (residues 1–22), biotinylated (peptide)
peptide: Biotin-MAEETKHGGHKNGRKGGLSQSS
notes: junctin, N-terminal cytoplasmic domain, residues 1-22; also called biotinylated Njun; junctin cytoplasmic domain; source: synthetic peptide
As for B2, in assay [4], the binding result is recorded as “binds”. Further, the “open probability of purified RyR1 channels in lipid bilayers, 213 nM Njun in the cytoplasmic solution, increase over control” value in assay [5] was 5 fold.
